# Reference: the NTF2 design screens of Basanta et al. (2020)
# Assay: protease stability score; higher = more stable; yeast display proteolysis, trypsin and chymotrypsin;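 also: relative to predicted unfolded state with 0 unfolded-like and 1 meaning tenfold more protease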
row,Sequence,protease stability score
1,DETTELVHEVWRVHLESLMTGDFDKFHELADPNAKVDVHYDGRRDDNHGREKLSHQIKRILQEWRVTIRINREDAIGNKLHVDSDLRVNYDGVEIRVRLLSIIVVVNGRFKSIEYHVL,1.29
2,SEDEEHARRFRELWLRIFHTGDWHEFHKLLDPNVRTQVGEFHDIGRESAAEHLELFLKQLGVDHTDITHVELIYIGDKVEVNILLRKEQGDKEYTFRIHIVVRKVNGQWLIKSIHITVE,1.54
3,DEMDEISKEAWRMLKEITRTGDEDLMHKNVDPNARVIYGDKVVHGRERVTKILVEMRIDHEEHRDSRVVGNKVELDVHFDGEFDGRRFRTDVHWVIVKINGQWRIKEHVIL,1.22
4,DEDKEFMERLARMFWHSILTGDEHRISNLADPNMKLEVDGQRFHGREEMERASKERWERLGVDHIHIEDLRVVGDKVTIHTHVDINGKEWRVDIEVKIINGKIKEIRIERHEL,1.09
5,SEHEEEARKASQESLHDLKTGDEDSFERLLDPNTRVIVLFDGREIIHVGREEVTRFISEWLKRYKGMRIEMQDVRVIDGRIDIHLKTDVDGKDHRLDIHSEKINGQWFLKSIFVDVH,1.95
6,SEEEDLMRHLTELYIRAFETGDEDHLRKLADPHVRLHVDIDGKRLDFHGMEQTSEWWERMGIDVHHLHHHEFIGDKSHIDSEVVFNGRKRKFEINVVIVNGRIKSERHIFK,0.691
7,SEDSEHAVEYMRLLRESMHTGDEKSWEDMMDPNMRILINGKDLIGWEEFSEFLRRFDHWEIRHVEIKDTKLINGRIELKGRMDIRLTINGKETSHVRNVHILSLKVNGRWILKSIEIE,1.34
8,DDHEHFHREIWRTWLELQLTGDPHRLERLADPHVRFVYGDKVFHGREKMSEHFERENRELGIDHVEVRIKDSRFIDGRVHHDSELIIRVDGRTYKHDVKVIIDKVDGRWNIQKVEIR,1.07
9,DDLERLVRELLDLWKRALKTGDEDVLSKMFDPDVRLTINGQVSVGREDVLRLWQEWRVDRMEERDVTVQGDKIHMDGHSHVEYDGRRIEVRHEIILVIVNGRAKSQEVRIR,1.62
10,TKEEEESRHWSELMFHLEETGDEEILKDLADPHVKIHVNGVHLHGMEKLEEWRRRLGITKFDSHLHDFRVQGEKMHNIVHLHINGQKIDAHIIIIIVDGKITRIIIRIT,0.75
11,DEHEKEWQELFRLAAHVLETGDEKMLQHLIDPSARTRINGKYTHGWEESARTLHEIRRRLGIDHEEITDHEIQGDKVIIHGRSQVGDKNFTVNIEWIIVNGRLKSVNFTIH,0.55
12,SEEDKHLLHLMHLFLHWFDTGDEEQFWHYADPHVRMSVNGVHLHGRETVMRQISRTLKEWRVDDRRIHDSHTVNGVVHQDGRVDGEFNGKRDTREYYLIIVIFNGRIHSVEIHIK,1.46
13,SKEEHDAKYIAMLVVENLLTGDWERLFRYLDPHARMEFKVGDKHIETHGWKEIKETLDELITEWRTDDMKVRDIKVYGDKVDVEGEMRGDINGRIRTIEVRIEVIVVNGRLKDISFEVK,1.95
14,DEDREFAERVMKLLLHSLITGDFRRIHELADPHMRLHQGDFNIIGWDTIYEIMFRLGFRLDDFRIEHMDVVDGRVFLQGRSDGTINGRRTRTNVNIIIEKIDGRWYLRENEVR,1.08
15,DELDEQVEELARDIIRNWHTGDEERWEHLADPHVRVTIDGRLHIGREEAMKMLRHWLKRIDHITVNIRRIHVFNGRSEVHSELTMHVGDKNIHHHEIINIVIVDGRIHNQEIHLK,1.39
16,SEYEEEVRRAMELEIRSIKTGNEELIKHLMDPNVRLVIGDKNFHGREAIEVFVERFDYIHEVEITSIDLQGDFVNMRGVLDGRINGQRLRTKVHYISRKVDGRWFSESIHIR,0.66
17,DEEEHLLRRVSHFWARARKTGNEEVIRDLMDPNMRSTINGVEFHGREEHLHTLREWRVKSVHFEHVHVVDGRIEIKMREDGFVNGRETHFTLRITIVIIDGVVHHISIDLR,0.787
18,SEDDNMAEHVLRYFIEHHLTGDFDSILKLMDPNMRLEVNGREHWGRKRWSEHLLRMGFDHVDIEEHRINSYGNFAYEIIHGRYHINGQEINITLIINVEKVNGKWIIREVTIVKR,1.74
19,SEDDEDNERWFERLLHSLHTGNEELTRKLMDPNVRVDFNGKDLHGMDHMVKLVRHLRNRVDHLHMLVHHSDNINGVAHNDVTLELRYGDKTERLRVRIVASKVDGRWILKSVEID,1.28
20,SEDDETIERASRLLVEDHDTGDWESWEKNADPNMRLVIGDKDVVGRENVVEHLHRLRKKMGVKHVHLRVESIEVQGDKIRQDGRLLIIVNGQELRIEVRIVAIKVNGQWINRMVDVK,1.08
21,DEDEREVKHWLKILLHELWTGDFRNVSRLMDPHARLLINGVTVVGREEFLEVLRRVDHIELRIRDMKVIDGRIHAETELIEHFDGRTFIHDTHMRAKKVDGRWRIESIEIR,1.31
22,DDETHEYEEAMELWVKALTTGNEDLLKDLHDPHTLTRINGRTEHGRHTWVEIRRKLGVKHLHIETSRLIDGRVHLHARIHVGDKNLEIIVIIVKVNGRWLTSEINIH,0.951
23,DHDDERVEHFARHWVHNFLTGDWKKLTDQVDPHVRLDVNGQKFHGREAIREWLEHILREIRVHDLKFDHIHLQGDYTIIEGTQIIHYNGRTEIRKTRIEFIIVDGKFQEIRIKTL,1.43
24,DKIKHLEDEIEKIFFETIETGDEHLFNQLVDPNVRVRIGDKHSVGREHVERVEREHREHMGVDHVEIRIHDSRTFNGVIHIEGKLHYHVNGRRHEHRIHIFLVVWDGVVRHLEIEIR,0.305
25,DEWTHVLHEMLKLLLDAWDTGDEKVLHRMMDPNAKSEINGREFVGMHHISTWLKRERDRLGVEIHIHVRRINFQGDKLEVDSHFNVIIGDKEFHRSTRIELIIVNGRVHSLHIKID,0.212

row,Sequence,protease stability score
1,SEDEEMLRLAWEIHREILDTGDWKMFEELADPHTRIEVGEYINVGRETASKFILDNVRKIKNMRLHVHEHRTIDGKLEIHLRVNVNGQHRTLFLFASKFDGVWIITSVVVEIR,1.18
2,SEEEEMLKIALRIMLHTIHTGDEDLFSELADPNVKIKIDGVELVGWEFAHEWMREHIEQVPNVKLKIHSVKTIDGRVDSDLIRIFDGVTHKIRLISHKINGRWLIETITVN,0.964
3,DEHREIARRHTEVWWKLLLTGDEHLLRELADPHVRLETEHEEVHGREEVVRFLTEEIMKVKNIRLELKRIEVQGDKIDVEGTRHIDGVTIRVILYIHKINGRWVVQQIQLD,1.29
4,SEDEKFARHVVKLWEDNYKTGNFEELLHMMDPHVKIKVNGRELHGWEELEKILTEFHERFRNQKLDIKLRDLKIQGNYVHADMELTIHYNGQEHREQVHLVVRKVNGRWEIEKITFD,0.813
5,DEWEELIEETAENIIRFIETGDEDFFRTFADPHMRFIYDQGDFRLIDHGREKVSEWLIRFLQEMRIIFIIEDVKVQGDKAHSQGRIHVNINGQRHEFNSRVIVVWVNGRLKYFRMSVR,1.43
6,DEVKKETDEFSEKFRHALLTGDEEEIEKMADPHVKVDIDGREHHGREEWSEIYREWIHKRGVRIKHIRDHEVRIINGRAIIDQRVHGIVNGQETTLEMHFTTTKIDGRWILTEVFVK,1.42
7,SEEHESSQKAIELLWHSMETGDEKLTEDFADPHVRLEFNGVRFHGRDQMNEIIHRQLREMRLKSIHLHHIYSFNGRVHIHGEVIGRVDGRELSHEMEIVAVKVDGKWVLKSLRIH,1.2
8,SEEDELAKYVIRLWVEEFRTGDEESMFRLLDPHVLVQQGDKEYHGRERWEDFIRKLGLQNVRVEVHRVTIQGEFIHVDGIIEIGDKRTRYILYFEKFNGRWINKELRIK,1.48
9,SEEEELVKKATDHWKNVIKTGDEHTIKKLVDPSARIIINGQEHHGRHMIHTLIHLWGVDKIEVHLRHLHMQGDKLEIINEVRVNGQSSTLTTISTKINGVWQFEEVQLE,0.902
10,DEDEEMSRIALNLFIHAMDTGDEHTLTHLMDPNVQLQINGREIIGREEVIRFVRELGVKHVKSHRLRDMELQGDKIIIDAEVEESQGDKEHHFRHTIVFRKVNGRWIIQSIKIK,2.13
11,DEDMDISKHWAELWMKLEKTGDEEELRKLMDPHARIDFNGVDIHGMEFWLELLKREKDKFKNVKITLEEFRIYGDYVHFHVIIHQGDYHLRIEITIIVVNGRHKELIIRIK,-0.059
12,DEDERFFHEMLELWMHIYETGDWNRLHELFDPNALLLIGDKQVHGREKVTHYLFEMVHRADHSESRVRELHVIDGRVHIHLELHIDQGDKHLRIEIFLHAKKVNGRWVFTKLELR,1.99
13,SEEEEMLHHLSERMTRALRTGDWKTLFELLDPNVRYEQGDKELHGREEMVKHIRHAMERVKNIRIEFTHIDTRLIDGRIHVHIDGRDEFNGVRFKKHIIVHIDKIDGKWFTDNFRLIYE,1.15
14,SEDREEYHELLKRMIHALMTGDWRDFEKLFDPNARLEVNGQIFHGREDVVKWLRDVLKRYDHIEHFRIRTEEYQGDKIIMDGELHKVINGQHIVTRVRIEVWVVDGRLKRRSEREE,1.51
15,SEQDEMAEKWVHMFLHSWFTGDEDFFETLLDPNVQLIVNGKHHHGREDVKRFLHEEYRRIDHIEDFHLRRLEIQGDFARLDGEVIMIVNGRRHEFRVEIRLFIVNGKMRSIEINEE,2.23
16,TEEDKLIEKAWRLFLHILHTGDWEEFHRLADPHMREDVNGVNLIGREDVLRHFIRLIEELGVKHSHVKDFRIHIFNGVIHTIMDVRTEYGDKSVDVRIHLEIEKIDGRWFLRTARIRLT,1.51
17,DETEERTRKAIKLSLEVLRTGDERVISEMADPHVRLDFNGRQLHGREEFVHHIVRFFEEAGINYLHIEDWDVFNGVIIEHVRWNFNGREVEVEIIANKVNGKWLIKEFRIK,1.07
18,SEEEDISRNLLEIFLRVLLTGDEHAISRLLDPRVLVIFHFENRDIILHGRSNVLKWLHDRLREIRINDWSVKSVEVQGNKAHQDTRIDIIIGDKKIDKEVEVNITVVDGKVKHLEIRVH,2.21
19,DEDTKIIKEMLDEMVHATLTGNEDLLRELVDPEVRIRVGDKEKHGWEFLFHMLKHLRIDRSEITIHSIRVVNGRVEVDGELRIIFTIGDKHIEFSTRVHIILEKVDGRWRVQALLFH,0.688
20,EEDEEHIRKVIETFREMSETGDEDWSERMADPNARLIVGNKEFHGRERFNEWNRELTERIDHFEVRIRDFEIQGDKLILHVRITIIINGKDIETESHIIMKKVDGRWFMHSLHHK,0.752
21,NEDEEIWRKAHEFMIHAMKTGDEDVEKSLFDPHTRFEQGDKELHGREMIEHLLRLLRERFPNVQIRRMEIQHWDHFNGVLIEFGELRVDVNGRTVSLRIIIYAEKINGQWHVKRVEFD,1.52
22,SHEEEMAERALRKFIHSVQTGDEDSWEELLDPNVRINIGDKRHVGRHEAVKLFRQRIRHLRIDHIELRERDYYGDKLILRIIVEGRFNGQETTLELHIVFWKFDGRWIIESMEHK,2.77
23,DENHRHASELIEIFRHALATGDWETLYRLMDPHTRVLINGKDLHGMEEHLTFLLEEHERLGIENIDVRVRIDHREVQGDKIIIHITIHLNFNGREIYFESRIIVSKFNGRWSIESLEIR,1.42
24,SEEEETLKRLAHHMYESYITGDERVIKHLVDPNARSRIGEFDDHGREATEELIRRIDHVHHIDIRDMKIQGNWLHLHVRVDGVVDGKRTEHDMEIIVLKVDGKWIVHSMIQR,1.05
25,DEEKDIMERIADLMLELSETGDEHTYKRMADPNVRLRFNGVDIHGMDNISKYLKEFFERIDHVEFEIKDFRSFDGRYNNRGLLILNVGDKRIIIDITIRVEVVNGRVKERQVDID,0.749
